Experimental data: patent publication CN113564213A

Legend:
[1] = biological target: 增强型荧光蛋白eGFP (eGFP的A206K突变体, mEGFP); experiment: bead capture from 1 mL eGFP IVTT liquid, beads in excess, 1 h; fluorescence (RFU) of IVTT supernatant against flow-through
[2] = biological target: 增强型荧光蛋白eGFP (eGFP的A206K突变体, mEGFP); experiment: bead capture from 2 mL eGFP IVTT liquid, eGFP in excess, 1 h; fluorescence (RFU) of Total against Flow-through

结合效率 [1]: 98.2%
载量 (每毫升antiEGFP磁珠结合的eGFP蛋白的质量) [2]: 17.7 mg/mL
B1: antiEGFP-mScarlet-Tamvavidin2融合蛋白 (VHH, part only; not given: mScarlet and Tamavidin2 parts, not shown: large carriers)
chain, part: MAQVQLVESGGALVQPGGSLRLSCAASGFPVNRYSMRWYRQAPGKEREWVAGMSSAGDRSSYEDSVKGRFTISRDDARNTVYLQMNSLKPEDTAVYYCNVNVGFEYWGQGTQVTVSS
